Laboratory results from the DeepSol protein solubility set.

Assay: soluble on expression in E. coli; label from the status in PepcDB or PDB records

Sequence | soluble on expression in E. coli
MKVLDSRDFAKVKAIAIERASYRNIGALAVYIGSMTGMRISEVLALTWPDIDTKLCVIHVTRSWDHLYGTGFKPTKTDSSVRDIEISPSVIELLNKIHQEQAASYLRTGYRDEDQMIMRDPRHNVITDSACNKALHVIQNKAGIPEDKQITFHGLRHSHVSYLISKGVDIYYISKRLGHSDVTITMKVYGHLLEHHHHHH | soluble
MKVLFVCSGGMSSAIVVNALKKEAEKKGVNMEVHAIGTSEVEEEVKNGWDVVMVAPQVRHRFDSVKKFAEEESIPCGIIPPQAYTPLGGPTLLKTVNDLIR | not soluble
MKVLKCGVMLLSILFVSQLHVYAEENRWTWPVEGQISDYFGTRHGKHYGIDVAAPIGTPVVAIQDGKVTRSYYSSSYGNVVFIKHGEYEAVYAHLNKRYVNQGDYISKGEKIGEVGNTGESRGAHLHLELHQGRWTMAKKNAMNPLLVLSEQRNEVVSSSLYVVQKGDTLVSIARKFSMTLKEIKEKNGLQQELIYPNQQLYVK | not soluble
MKVNPDFFPLTQMAQRFVDQLAQCRRLGLTVLEASEHHVLIELPYSTELIGYPDTGVIHGGVITTLMDTACGSAVVSAIFQKYQSLEISPTLDLRVDYMKPAQPHKSVYGFAECYKLSSNIAFTRAIAYQDSIDDPIAHAVGSFMRISPEMVGDAFRQALIGLEHHHHHH | soluble
MKVSEKTYLSIEEIISLPTVSSTNISDDGKNVAFVKRTANWEDNTYRNHVWIYEKDKGKSYPLTTGDIDSIHPLWSPDSKSIAYLSSGGDGDMKNQIFVKSLDDYSKVKITDEKEGISNFKWDPTGKGFYYITQSKECEEIKKRKELYGDFQHVGKEHQNNCLCYIEMEKVIQNDKEEREINGVYQLTGGKDFYIHGFDISDNGKKVVCMATPSLNDHMNGDLYILDVEARELQQMNVDKLLGGSACFSPEGNKICYSASIREKEYYRNHIQESTLEIYDMNTGEVIQPLTNFDSMVMPLQWTAKGILIRWQDKTNYFIGLLAEDGTVETLREKVDGFIMDASITRDGNHITYNKAITNETFEIYLDDKKITNENSLFEGKLKSNREIISWRSSDGLEIEGVLSTPVEFDANKKYPLLVVIHGGPAWASFPIFSNCFNEKYPIEQFVEKGFIVLEPNYRGSSGYGNEFLKANYRKQGLADYDDVISGVDELVEKGMVDKDRVGVMGWSNGGYISAFCSTFSSRFKAISVGGGITNWSTHYVNTDIPYFIRMYLGNTPWNDPDIYKRTSPMTYIKSACTPTLIQHGEKDARIPITNAYELHQGLKDMEVDTELIIFKGMAYSSDQPGVHVAIMKQNLMWFSHYILGESMEDFSTI | not soluble
MKVSELMTTDPITVSIDDTFSKVMSKMNETGIHQLPVMDGDRYAGMITYSDLLKKRSIQVKSKISNYTISTPTLNADDDVLEAVRLIKDTGLSALPVFQKGKLVGIISRTDIIKNLPQIVDVRDVRIFQIMSSDPIYVYEDDDIEEAFDSMRMLNEVEIPVASRDEKLSGIIRLNSILNILYRQKEKIKYGGYGEKEPVEIKCKSLMDPPVSVDRYAGIDEAVKLMMQYSLHIMPVTDSGKIVGIVDFSDLINMIKTESKEGILIEISGLDVYDEDLYDIAFELSERFLDKFSKMTDVSQGKLLIHVMKYKTQGSTKYSIRTRISAPPLFLVQNGSGWNFAEVLGEIFDRYEERIKKMKEKQ | not soluble
MKVYVGNLGTGAGKGELERAFSYYGPLRTVWIARNPPGFAFVEFEDPRDAEDAVRGLDGKVICGSRVRVELSTGMPRRSRFDRPPARRKLLEVLFNGPLEH | soluble
MKWILLPILFVTLAVSGTALAQPSPTETVKKTVDDVIKIVSDKELKKPQNEKRRRQEIKRAIGTVFDSAEMAQRAMARHWRDRNAAEKKEFVDLFENLLENSYAGKIESYNQEKVVYLKEAIDGDYAEVRSKIVTARRDEYSLDYRLMLKGGKWVVYDIVIEGVSLVSNYRTQFNKIITNQGYAELVKKLRSKNKEISMPLEHHHHHH | soluble
MKWSSMLKVSAISLSVFTAVSAKAQLGEPEIEDLKFGFIKLTDMAPLAVAYEKGFFEDEGLYVTLEAQANWKVLLDRVIDGELDGAHMLAGQPLGATIGVGTKAEVITAFSMDLNGNAITVSNDTWEQMKPHIPKQPDGKPVHPIKADSLKPVVDSYRDKGKSFNMGMVFPVSTHNYELRYWLAAGGIHPGFYAPDSGDNSGQLDADVLLSVTPPPQMPATMEAGTIKGYCVGEPWNQQAVFKGIGTPVVTDYEIWKNNPEKVFGVSKAWAEKNPNTHIRVVKALIRAAHWLDENSNANRQEAVKMLAKSEYVGADADVIANSMTGTFEYEKGDKRDVPDFNVFFRHNATYPYYSDAIWYLTQMRRWGQISSEKSDDWYMDVAKEVYRPDIYQQAAQALIEDGVLSKKDFPDFSAEDGFRPPQTHFIDNIVYDGREPNKYLEKFSIGLKGKDKVMAGDPLEHHHHHH | soluble
MKYDDTINIAFFGLDRRQKTDISRSDSIMILTMDPTHKKLKLSSIMRDTYVNVDGHGMTKITHAYAYGGPQLAIKTINENFNLNIKDYVTVDFYGLEKIIDKLNGVEVDVQPDEVNYLNSYIDEVSKYEKVTPNHVSSAGKQLLDGRQAVAYSRIRYTAGGDFQRTERQRTVLMAVFNKMKAQGKSNMLSMMDELLPYAETDLGSLDIAKYGAKFLSSNIDSIDQERFPVDGYCSGITVDNVWYLKTDLGVTSDQMKKYIFEDVKPTPKASLVNIPAKLEHHHHHH | soluble
MKYDLTTQDSTIKRNNSINDKDFEKLVMDLQPLIIRRIKTFGFNHYDLEDLYQEILIRMYRSVQTFDFSGEQPFTNYVQCLITSVKYDYLRKYLATNKRMDNLINEYRVTYPCAIKRFDVENNYLNKLAIKELICQFKYLSAFEKDVMYLMCEQYKPREIAQLMHVKEKVIYNAIQRCKNKIKRYFKMI | not soluble
MKYIDCAVIGAGPAGLNASLVLGRARKQIALFDNNTNRNRVTQNSHGFITRDGIKPEEFKEIGLNEVMKYPSVHYYEKTVVMITKQSTGLFEIVTKDHTKYLAERVLLATGMQEEFPSIPNVREYYGKSLFSCPYCDGWELKDQPLIIISENEDHTLHMTKLVYNWSTDLVIATNGNELSQTIMDELSNKNIPVITESIRTLQGEGGYLKKVEFHSGLRIERAGGFIVPTFFRPNQFIEQLGCELQSNGTFVIDDFGRTSEKNIYLAGETTTQGPSSLIIAASQGNKAAIAINSDITDERF | soluble
MKYILFATAGHVDHGKTTLIKTLTGIDTDRLPEEKKRGLSIDIGFAYIDFPDINTRLEIIDVPGHERFIKNAIAGICSASGLILVVDPNEGIMPQTIEHLRVAKSFGIKHGIAVLTKMDKVDEELAHIAEEELIAFLEKEEMNMEIVKVSAVTGQGIEDLKNSIKKLLESINNLNKHKPLRIFVDSAFVVKGYGTVLRGSCFEGEVKEGDKVVVEPIGVISRVRKMQNHGVFVKKAVAGERIALNLPEVDAKKVKRGFLILKPESYEKSNVLIVKTEIDLKPGKIYQVFFGMRETVGKISVIDKGIYLVRLKENAIVRRGDKLVVLDSSGNFLGGAEVLHPKVRVTKKAFIKKNIKDLLENFECYLLKERGPIGLKLEFFKRITGVSPKVANLKPESIEIRGVYYLKGFIENLKLKIKKFLDTELQNAFGVDKEKVKSMFSLNEELLKYILDELKTYKIVNELIIDERKSDLEKNEDFQKLMSILKGGIKEEREIILEGIPKEILTLSIKRKYAHRIGEYLIISDELLKKYINELKELGKTFNVQQAKNKLGLTRKYLIPLLEYLDYLGLTVREGNERRWKR | soluble
MKYKIFASTTPQTEPVLNKLRAVLKTWQAVENGYEYVFVLGGDGFFVSTLANYNCDSCKVVGINTGHIGFYTSFNGDDLDENFISKLTSFEFKKINLLEVKTKNHSFLVLNELAVYTNTAYPINIFIDDNHWESYRGSGLLIGPRTGSTALAKSAKGAVIFPNVDVVQIIELNPLLHPNQITIQSPIILPMQTKVEFRIKKAFKAEQFPNFYADGIKLDLKNEDTSISFQLVLSRSMFHASLKTKDFIDKLKSTFIKQSLEHHHHHH | soluble
MKYNREKLKNKVCLAIIGMPHGIKGDVLLKILSSEPQRLKTYGTLYDDRGHSYEIVMLRMQKKNAIVHFKGVEDRSAAEALRGIHLYVARDQLVDDLTEDEFYQVDLIGLRVQDCTGRILGEVSGLFNFGAGDLLEMRLNTGKTVLIPFSKAAVLEVCIASGFLVVDPVAAGLSDGGENTLEHHHHHH | soluble
